Source: US7727972B2, “Methods for determining absorption of cobalamin or analogues thereof” (DrugTech Corporation, priority 2004, dated 2010)

B1: Proteinase K: proteinase K from Tritrachium album (EC 3.4.21.64) (Sigma Aldrich) (protein, UniProt P06873 106-384, looked up)
Proteinase K: AAQTNAPWGLARISSTSPGTSTYYYDESAGQGSCVYVIDTGIEASHPEFEGRAQMVKTYYYSSRDGNGHGTHCAGTVGSRTYGVAKKTQLFGVKVLDDNGSGQYSTIIAGMDFVASDKNNRNCPKGVVASLSLGGGYSSSVNSAAARLQSSGVMVAVAAGNNNADARNYSPASEPSVCTVGASDRYDRRSSFSNYGSVLDIFGPGTSILSTWIGGSTRSISGTSMATPHVAGLAAYLMTLGKTTAASACRYIADTANKGDLSNIPFGTVNLLAYNNYQA
B2: subtilisin Carlsberg: subtilisin Carlsberg from Bacillus licheniformis (EC 3.4.21.62) (Sigma Aldrich) (protein, UniProt P00780 106-379, looked up)
Subtilisin Carlsberg: AQTVPYGIPLIKADKVQAQGFKGANVKVAVLDTGIQASHPDLNVVGGASFVAGEAYNTDGNGHGTHVAGTVAALDNTTGVLGVAPSVSLYAVKVLNSSGSGSYSGIVSGIEWATTNGMDVINMSLGGASGSTAMKQAVDNAYAKGVVVVAAAGNSGSSGNTNTIGYPAKYDSVIAVGAVDSNSNRASFSSVGAELEVMAPGAGVYSTYPTNTYATLNGTSMASPHVAGAAALILSKHPNLSASQVRNRLSSTATYLGSSFYYGKGLINVEAAAQ
B3: transcobalamin: cobalamin binding protein; pure TC dissolved in phosphate buffer 0.1 M containing albumin 0.1% (protein, UniProt P20062 19-427, looked up)
Transcobalamin-2: EMCEIPEMDSHLVEKLGQHLLPWMDRLSLEHLNPSIYVGLRLSSLQAGTKEDLYLHSLKLGYQQCLLGSAFSEDDGDCQGKPSMGQLALYLLALRANCEFVRGHKGDRLVSQLKWFLEDEKRAIGHDHKGHPHTSYYQYGLGILALCLHQKRVHDSVVDKLLYAVEPFHQGHHSVDTAAMAGLAFTCLKRSNFNPGRRQRITMAIRTVREEILKAQTPEGHFGNVYSTPLALQFLMTSPMRGAELGTACLKARVALLASLQDGAFQNALMISQLLPVLNHKTYIDLIFPDCLAPRVMLEPAAETIPQTQEIISVTLQVLSLLPPYRQSISVLAGSTVEDVLKKAHELGGFTYETQASLSGPYLTSVMGKAAGEREFWQLLRDPNTPLLQGIADYRPKDGETIELRLVSW

What was measured:
[1] = biological target: T1, TC-bound 57Co cobalamin (cyanocobalamin-transcobalamin complex) (Homo sapiens, UniProt P20062); assay: Release of 57Co cyanocobalamin from transcobalamin using proteases; type: biochemical; conditions: 50 U protease, human donor serum, TC captured on antibody-coated magnetic microspheres; 15 min (chymotrypsin 45 min); FIG. 1
T1 construct: from tissue; host or cells: human donor serum
T1 sequence (P20062 19-427): B3 Transcobalamin-2
Procedure: 25 μl tracer solution and 2.5 μl cyanocobalamin solution were added to 400 μl human donor serum. Tris-HCl 0.1 M pH 7.4 was run as a control. After addition of 50 μl capturing reagent, the samples were incubated on a coulter mixer for 1 hour at room temperature. The samples were placed in a magnetic rack for 3 minutes for separation of the capturing reagent. Subsequently, the rack was inverted and incubated for another 3 minutes. The supernatant was discarded and 500 μl of washing buffer was added. The samples were vortexed and placed in the magnetic rack for 3 minutes. Subsequently, the rack was inverted again and the samples were incubated for another 3 minutes. After separation, the washing buffer was discarded and 50 U of subtilisin Carlsberg, in 200 μl Tris-HCl 0.1 M pH 7.4 5 mM Ca^2+, was added. After incubation for 15 minutes at 50° C. in a shaking water bath, the samples were put on a magnetic rack for 3 minutes for separation of the capturing reagent. The rack was inverted and incubated for another 3 minutes. The supernatant was discarded and the pellet was counted for 5 minutes on a gamma counter.
Similar experiments were performed with proteinase K (50 U) in Tris-HCl 0.1 M pH 7.4 5 mM Ca^2+ incubated at 37° C., thermolysin (50 U) in Tris-HCl 0.1 M pH 7.4 5 mM Ca^2+ 5 mM Zn^2+, and chymotrypsin (50 U) in Tris-HCl 0.1 M pH 7.4 incubated for 45 min. at 37° C. […]

[2] = test system: Anti haptocorrin antibodies (ELISA); assay: Cross-reactivity of the haptocorrin ELISA towards other cobalamin binding proteins; parameters: species or system rabbit; conditions: 100 nmol/L in the assay mixture
Procedure: Antibodies. Anti haptocorrin was produced by DakoCytomation A/S, Denmark by immunising rabbits with 200 μg pure haptocorrin produced as previously described (12) and deglycosylated as described above. The gamma globulin fraction was pre-pared (13) from serum obtained after 7 immunisations.
ELISA. The principle of the ELISA assay used was an immobilised capture antibody (0.1 ug gamma globulin/well, rabbit nr F7773) catching the analyte and a biotinylated detection antibody (gamma globulin 3 ug/L, rabbit nr 7772) visualised by avidin/Horse Radish Peroxidase (HRP). Colour development by addition of 3,3′,5,5′-tetramethyl-benzidin was proportional to the concentration of analyte. The assay procedure was as previously described for transcobalamin (14, 15). In brief, calibrator, sample or control (100 μL, final dilution 1:30) was incubated for 1 hour at room temperature prior to washing and incubation for 30 min with the biotinylated detection antibody. The attached biotinylated antibody was detected employing avidin/HRP and colour development was determined by measuring the absorbance at 420 nm and correcting for the absorbance at 620 nm. The calibrator employed was deglycosylated pure human haptocorrin. All samples were run in true duplicates, where deglycosylation was performed on two independent samples.
Samples. […]

| release of cyanocobalamin from its complex with transcobalamin (counts remaining in the sample) [1] | cross-reactivity in haptocorrin ELISA [2] | Molecule |
| --- | --- | --- |
| most effective | – | B1 |
| most effective | – | B2 |
| – | No cross-reactivity | B3 |
